Test results published in article PMC3205248.

Target: His6-DIP1-c (Disconnected Interacting Protein 1, longest isoform) (Drosophila melanogaster)
Test: AUC

His6-DIP1-c (Disconnected Interacting Protein 1, longest isoform) (natural protein)
stoichiometry N: 2
